Measurements as given in paper PMC9352680, “A comprehensive thermodynamic model for RNA binding by the Saccharomyces cerevisiae Pumilio protein PUF4”.

T1: PUF4 RNA-binding domain (Saccharomyces cerevisiae, UniProt P25339 537-888)
T1 sequence: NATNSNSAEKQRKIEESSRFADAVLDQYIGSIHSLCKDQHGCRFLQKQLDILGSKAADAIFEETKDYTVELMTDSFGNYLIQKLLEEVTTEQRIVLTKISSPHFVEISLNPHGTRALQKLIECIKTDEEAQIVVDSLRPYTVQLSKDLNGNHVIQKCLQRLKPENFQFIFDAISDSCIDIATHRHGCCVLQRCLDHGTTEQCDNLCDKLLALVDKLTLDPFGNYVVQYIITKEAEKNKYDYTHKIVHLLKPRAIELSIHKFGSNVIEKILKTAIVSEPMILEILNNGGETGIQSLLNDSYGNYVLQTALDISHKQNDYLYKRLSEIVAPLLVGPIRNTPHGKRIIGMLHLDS


Each binder was assayed against T1, PUF4 RNA-binding domain (assay: Mg; RNA-MaP; 20 mM Na-HEPES pH 7.4, 30 mM KOAc, 0.75 mM MgCl2, 0.1% Tween-20, 5% glycerol, 0.1 mg/mL BSA, 2 mM DTT; 25 C; 0.0125-409.6 nM protein). Settings: tags: N-His6-TEV cleaved; C-SNAP kept, Cy3B-labelled; label: tethered on chip by stalled RNA polymerase.
Work on UCUCUUUGUGUAUUAUUAACUCUCUU (ssRNA) [Id_ii_S1_P5E.2_K5.1_C5.2_[C-2T]_[T-1G]_H5.1_A5.1_F5.1_T5.2_[T11A]_[A12C]] yielded a Kd of 3.86 nM. For UCUCUUUUUGUAUUAUUAUUUCUCUU (ssRNA) [Id_ii_S1_P5E.2_K5.1_C5.2_[C-2T]_H5.1_A5.1_F5.1_T5.2_[A12T]], the Kd was 10.2 nM. For UCUCUUUGUAAACUAUCUCUU (ssRNA) [Ic_S1_P4E.1_K4.1_C4.1_H4.1_A4.1_[T5A]_[T7C]_F4.1_T4.1], the Kd was 2.01 nM. Work on UCUCUUUGUGUAUUAUUAUUUCUCUU (ssRNA) [Id_ii_S1_P5E.2_K5.1_C5.2_[C-2T]_[T-1G]_H5.1_A5.1_F5.1_T5.2_[A12T]] yielded a Kd of 3.95 nM. In the case of UCUCUUGCUGUAUUAUUAUCUCUCUU (ssRNA) [Id_ii_S1_P5E.2_K5.1_C5.2_[C-2G]_[T-1C]_H5.1_A5.1_F5.1_T5.2_[A12C]], the Kd is reported as 11.7 nM. Binder UCUCUUCUACACUAUUAUCUCUCUU (ssRNA) [Id_ii_S1_P4E.4_K4.3_C4.2_H4.3_A4.1_F4.1_T4.2_[G10T]_[T11C]] has a Kd of 1700 nM. For UCUCUUUUUGUAUUAUUAACUCUCUU (ssRNA) [Id_ii_S1_P5E.2_K5.1_C5.2_[C-2T]_H5.1_A5.1_F5.1_T5.2_[T11A]_[A12C]], the Kd was 8.08 nM. UCUCUUACUGUAUUAUUAUCUCUCUU (ssRNA) [Id_ii_S1_P5E.2_K5.1_C5.2_[C-2A]_[T-1C]_H5.1_A5.1_F5.1_T5.2_[A12C]] gave a Kd of 9.38 nM. Work on UCUCUUUAUGUAUUAUUAGUUCUCUU (ssRNA) [Id_ii_S1_P5E.2_K5.1_C5.2_[C-2T]_[T-1A]_H5.1_A5.1_F5.1_T5.2_[T11G]_[A12T]] yielded a Kd of 4.38 nM. Work on UCUCUUAUUGUAUUAUUAAAUCUCUU (ssRNA) [Id_ii_S1_P5E.2_K5.1_C5.2_[C-2A]_H5.1_A5.1_F5.1_T5.2_[T11A]] yielded a Kd of 13.4 nM. Work on UCUCUUGUUGUAUUAUUAUUUCUCUU (ssRNA) [Id_ii_S1_P5E.2_K5.1_C5.2_[C-2G]_H5.1_A5.1_F5.1_T5.2_[A12T]] yielded a Kd of 6.28 nM. In the case of UCUCUUUUUGUAUUAUUAUGUCUCUU (ssRNA) [Id_ii_S1_P5E.2_K5.1_C5.2_[C-2T]_H5.1_A5.1_F5.1_T5.2_[A12G]], the Kd is reported as 7.22 nM. UCUCUUUUUGUAUUAUUAAUUCUCUU (ssRNA) [Id_ii_S1_P5E.2_K5.1_C5.2_[C-2T]_H5.1_A5.1_F5.1_T5.2_[T11A]_[A12T]] gave a Kd of 8.7 nM. Binder UCUCUUCAACACUAUUAUAUCUCUU (ssRNA) [Id_ii_S1_P4E.4_K4.3_C4.2_[T-1A]_H4.3_A4.1_F4.1_T4.2_[G10T]_[T11A]] has a Kd greater than 2300 nM. Work on UCUCUUUGUACACUAUCUCUU (ssRNA) [Ib_S1_P4E.1_K4.1_C4.1_H4.1_A4.1_[T5C]_[T7C]_F4.1_T4.1] yielded a Kd of 0.824 nM. Binder UCUCUUGCUGUAUUAUUAACUCUCUU (ssRNA) [Id_ii_S1_P5E.2_K5.1_C5.2_[C-2G]_[T-1C]_H5.1_A5.1_F5.1_T5.2_[T11A]_[A12C]] has a Kd of 15.2 nM. UCUCUUGCUGUAUUAUUAAUUCUCUU (ssRNA) [Id_ii_S1_P5E.2_K5.1_C5.2_[C-2G]_[T-1C]_H5.1_A5.1_F5.1_T5.2_[T11A]_[A12T]] was tested, and the Kd was 21.6 nM. For UCUCUUUCUGUAUUAUUAAGUCUCUU (ssRNA) [Id_ii_S1_P5E.2_K5.1_C5.2_[C-2T]_[T-1C]_H5.1_A5.1_F5.1_T5.2_[T11A]_[A12G]], the Kd was 11.5 nM. Work on UCUCUUUUUGUAUUAUUAAAUCUCUU (ssRNA) [Id_ii_S1_P5E.2_K5.1_C5.2_[C-2T]_H5.1_A5.1_F5.1_T5.2_[T11A]] yielded a Kd of 16.4 nM. For UCUCUUGUUGUAUUAUUAAAUCUCUU (ssRNA) [Id_ii_S1_P5E.2_K5.1_C5.2_[C-2G]_H5.1_A5.1_F5.1_T5.2_[T11A]], the Kd was 11.7 nM. UCUCUUUGUGUAUUAUUAGUUCUCUU (ssRNA) [Id_ii_S1_P5E.2_K5.1_C5.2_[C-2T]_[T-1G]_H5.1_A5.1_F5.1_T5.2_[T11G]_[A12T]] gave a Kd of 2.43 nM. Binder UCUCUUUCUGUAUUAUUAUCUCUCUU (ssRNA) [Id_ii_S1_P5E.2_K5.1_C5.2_[C-2T]_[T-1C]_H5.1_A5.1_F5.1_T5.2_[A12C]] has a Kd of 4.88 nM. In the case of UCUCUUUGUGUAUUAUUAUCUCUCUU (ssRNA) [Id_ii_S1_P5E.2_K5.1_C5.2_[C-2T]_[T-1G]_H5.1_A5.1_F5.1_T5.2_[A12C]], the Kd is reported as 3.72 nM. For UCUCUUUAUGUAUUAUUAAUUCUCUU (ssRNA) [Id_ii_S1_P5E.2_K5.1_C5.2_[C-2T]_[T-1A]_H5.1_A5.1_F5.1_T5.2_[T11A]_[A12T]], the Kd was 10.6 nM. For UCUCUUCAACACUAUUAGUUCUCUU (ssRNA) [Id_ii_S1_P4E.4_K4.3_C4.2_[T-1A]_H4.3_A4.1_F4.1_T4.2], the Kd was greater than 2300 nM. Work on UCUCUUUAUGUAUUAUUAUCUCUCUU (ssRNA) [Id_ii_S1_P5E.2_K5.1_C5.2_[C-2T]_[T-1A]_H5.1_A5.1_F5.1_T5.2_[A12C]] yielded a Kd of 8.06 nM. Work on UCUCUUCUACACUAUUAUAUCUCUU (ssRNA) [Id_ii_S1_P4E.4_K4.3_C4.2_H4.3_A4.1_F4.1_T4.2_[G10T]_[T11A]] yielded a Kd of 965 nM. UCUCUUUAUGUAUUAUUAAAUCUCUU (ssRNA) [Id_ii_S1_P5E.2_K5.1_C5.2_[C-2T]_[T-1A]_H5.1_A5.1_F5.1_T5.2_[T11A]] was tested, and the Kd was 16.8 nM. Binder UCUCUUUGUAAAGUAUCUCUU (ssRNA) [Ic_S1_P4E.1_K4.1_C4.1_H4.1_A4.1_[T5A]_[T7G]_F4.1_T4.1] has a Kd of 7.21 nM. Work on UCUCUUACUGUAUUAUUAAUUCUCUU (ssRNA) [Id_ii_S1_P5E.2_K5.1_C5.2_[C-2A]_[T-1C]_H5.1_A5.1_F5.1_T5.2_[T11A]_[A12T]] yielded a Kd of 12.5 nM. In the case of UCUCUUUUUGUAUUAUUAGUUCUCUU (ssRNA) [Id_ii_S1_P5E.2_K5.1_C5.2_[C-2T]_H5.1_A5.1_F5.1_T5.2_[T11G]_[A12T]], the Kd is reported as 3.49 nM.
